Literature values, collected in PMC6347146.

Target: IL-21R (Homo sapiens) (UniProt Q9HBE5)
Sequence of UniProt Q9HBE5 (Q9HBE5 20-232): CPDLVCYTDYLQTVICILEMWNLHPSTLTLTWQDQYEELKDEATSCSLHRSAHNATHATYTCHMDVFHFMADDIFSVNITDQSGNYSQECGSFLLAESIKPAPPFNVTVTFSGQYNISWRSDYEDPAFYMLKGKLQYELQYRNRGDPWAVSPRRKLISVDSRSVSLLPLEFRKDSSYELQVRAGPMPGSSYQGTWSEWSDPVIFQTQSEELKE

- Kd: 0.07 nM
Substance: IL-21 (from UniProt Q9HBE4)
